The source of these data is publication PMC3488048 (The Journal of Biological Chemistry, 2012).

For this experiment, the target named is Kindlin-3 (full-length, C-terminal His6 tag removed, for NMR) (mouse, UniProt Q8K1B8 1-665). Put plainly: NMR titration.

For orientation: Kd means the free concentration of one partner at which half of the binding sites on the other are occupied at equilibrium, for simple one-to-one binding.

Where no end group is shown, it is not given here.

Chain of Kindlin-3 (full-length, C-terminal His6 tag removed, for NMR) (Q8K1B8 whole entry): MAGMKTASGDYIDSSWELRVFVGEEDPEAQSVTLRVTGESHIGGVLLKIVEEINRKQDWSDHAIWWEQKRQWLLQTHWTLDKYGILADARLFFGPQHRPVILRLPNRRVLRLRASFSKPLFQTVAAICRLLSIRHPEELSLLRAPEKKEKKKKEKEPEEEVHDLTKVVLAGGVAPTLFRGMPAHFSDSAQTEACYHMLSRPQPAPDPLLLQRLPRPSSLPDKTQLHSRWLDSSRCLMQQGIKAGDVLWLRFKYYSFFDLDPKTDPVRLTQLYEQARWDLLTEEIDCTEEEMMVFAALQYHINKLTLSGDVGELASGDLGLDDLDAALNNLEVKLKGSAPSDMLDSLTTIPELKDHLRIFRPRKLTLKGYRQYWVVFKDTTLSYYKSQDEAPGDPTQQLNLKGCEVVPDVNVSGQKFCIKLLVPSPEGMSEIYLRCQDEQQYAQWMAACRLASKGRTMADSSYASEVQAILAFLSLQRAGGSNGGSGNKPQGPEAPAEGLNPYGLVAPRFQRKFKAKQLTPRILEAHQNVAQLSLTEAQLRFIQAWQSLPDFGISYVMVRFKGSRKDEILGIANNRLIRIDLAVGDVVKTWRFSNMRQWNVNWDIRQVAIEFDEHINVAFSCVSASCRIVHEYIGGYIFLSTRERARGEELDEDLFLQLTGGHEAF

KLLMIIHDRREFAKFEKEKMNAKWDTQENPIYKSPINNFKNPNYGRKAGL (domain or fragment, UniProt P05556-5 752-801, looked up, also: uniformly 15N-labelled) [integrin β1D cytoplasmic tail] came in with a dissociation constant Kd of around 50 µM.
The figure for KLLMIIHDRREFAKFEKEKMNAKWDTGENPIYKSAVTTVVNPKYEGK (domain or fragment, UniProt P05556-1 752-798, looked up, also: uniformly 15N-labelled) [integrin β1A cytoplasmic tail] is around 50 µM.
